B1: T310F: TP-DNAP1 variant (protein)
chain: MDYKDKALNDLRNVYADFDSLPLDFRQILIKDRATLLQKEDVEKKILERQEDAKKYAEYLKQSEIPERISLPNIKRHKGVSISFEETSEDMVLEPRPFIFDGLNIRCFRRETIFSLKNKILNMVKESSSFKNVSRQSVSFMYFKIFNKGKVIASTKSVNIYEDKIDERLEDLCNNFDDVLKKIIDVTYGYESLFVSETYSYVIFYAKSIYFPQPRCVNNWGNNIPNILTFDSFKLFTANKNNVSCIKQCSRFLWQKDFNTLEEMIEYKNGNICIVTPQLHINDVRDIKSFNDIRLYSESPIKTFSVIDNFITYLFYFKEHLGVIFNITKSRHDRRVTKFSPLSKFSDVKNITVCFDIESYFDPEKESNQVNIPFICCASIIYNKVIGNIVDFEGRDCVAQMIEYVVDICGELNISSVELIAHNGGGYDFHYILSSMYNPAAIKNILIRNNSFISFNFAHDGVKFSVKDSYSFLLCSLANASKAFLNEETFKKTDFPHHDLKTADDLYKVYKEWSSVNTEINHVVEKEKLLITSEHIVNFTKNDKSKTLIEWSKDYCRNDVLVLSKVWLEFKNAVEDIFNCELVDQTMTLAGLSYKLFQANMPFDVELRHPNKEDYFNMREALIGGRCISVNGIYKDVLCLDVKSLYPASMAFYDQPYGSFKRVSSRPKDELGIYYVRVTPNRNNKSNFFPIRSHNKITYNNFEESTYIAWYTNVDIDIGLSEGHNIEYIPFDSYGNIGYSWSKKGKIFEKYIKDVLYKLKIKYEKQNNKVKRNVIKIIMNSLWGKFAQKWVNFEYFIKSEDDIDFESEEAYKIWDTDFMLIKKIKESTYSSKPIQNGVFTLSWARYHMKSIWDAGAKEGAECIYSDTDSIFVHKEHFKKNAKFMLNGLKVPIIGSEVGQLELECEFDKLLCAGKKQYMGFYTYFQDGKPCIKEKKRFKGIPSNYIIPELYAHLLSGADKEAKIQFLKFRREWGSVKGYIENKTVKAT
B2: I311G: TP-DNAP1 variant (protein)
chain: MDYKDKALNDLRNVYADFDSLPLDFRQILIKDRATLLQKEDVEKKILERQEDAKKYAEYLKQSEIPERISLPNIKRHKGVSISFEETSEDMVLEPRPFIFDGLNIRCFRRETIFSLKNKILNMVKESSSFKNVSRQSVSFMYFKIFNKGKVIASTKSVNIYEDKIDERLEDLCNNFDDVLKKIIDVTYGYESLFVSETYSYVIFYAKSIYFPQPRCVNNWGNNIPNILTFDSFKLFTANKNNVSCIKQCSRFLWQKDFNTLEEMIEYKNGNICIVTPQLHINDVRDIKSFNDIRLYSESPIKTFSVIDNTGTYLFYFKEHLGVIFNITKSRHDRRVTKFSPLSKFSDVKNITVCFDIESYFDPEKESNQVNIPFICCASIIYNKVIGNIVDFEGRDCVAQMIEYVVDICGELNISSVELIAHNGGGYDFHYILSSMYNPAAIKNILIRNNSFISFNFAHDGVKFSVKDSYSFLLCSLANASKAFLNEETFKKTDFPHHDLKTADDLYKVYKEWSSVNTEINHVVEKEKLLITSEHIVNFTKNDKSKTLIEWSKDYCRNDVLVLSKVWLEFKNAVEDIFNCELVDQTMTLAGLSYKLFQANMPFDVELRHPNKEDYFNMREALIGGRCISVNGIYKDVLCLDVKSLYPASMAFYDQPYGSFKRVSSRPKDELGIYYVRVTPNRNNKSNFFPIRSHNKITYNNFEESTYIAWYTNVDIDIGLSEGHNIEYIPFDSYGNIGYSWSKKGKIFEKYIKDVLYKLKIKYEKQNNKVKRNVIKIIMNSLWGKFAQKWVNFEYFIKSEDDIDFESEEAYKIWDTDFMLIKKIKESTYSSKPIQNGVFTLSWARYHMKSIWDAGAKEGAECIYSDTDSIFVHKEHFKKNAKFMLNGLKVPIIGSEVGQLELECEFDKLLCAGKKQYMGFYTYFQDGKPCIKEKKRFKGIPSNYIIPELYAHLLSGADKEAKIQFLKFRREWGSVKGYIENKTVKAT
B3: T310W: TP-DNAP1 variant (protein)
chain: MDYKDKALNDLRNVYADFDSLPLDFRQILIKDRATLLQKEDVEKKILERQEDAKKYAEYLKQSEIPERISLPNIKRHKGVSISFEETSEDMVLEPRPFIFDGLNIRCFRRETIFSLKNKILNMVKESSSFKNVSRQSVSFMYFKIFNKGKVIASTKSVNIYEDKIDERLEDLCNNFDDVLKKIIDVTYGYESLFVSETYSYVIFYAKSIYFPQPRCVNNWGNNIPNILTFDSFKLFTANKNNVSCIKQCSRFLWQKDFNTLEEMIEYKNGNICIVTPQLHINDVRDIKSFNDIRLYSESPIKTFSVIDNWITYLFYFKEHLGVIFNITKSRHDRRVTKFSPLSKFSDVKNITVCFDIESYFDPEKESNQVNIPFICCASIIYNKVIGNIVDFEGRDCVAQMIEYVVDICGELNISSVELIAHNGGGYDFHYILSSMYNPAAIKNILIRNNSFISFNFAHDGVKFSVKDSYSFLLCSLANASKAFLNEETFKKTDFPHHDLKTADDLYKVYKEWSSVNTEINHVVEKEKLLITSEHIVNFTKNDKSKTLIEWSKDYCRNDVLVLSKVWLEFKNAVEDIFNCELVDQTMTLAGLSYKLFQANMPFDVELRHPNKEDYFNMREALIGGRCISVNGIYKDVLCLDVKSLYPASMAFYDQPYGSFKRVSSRPKDELGIYYVRVTPNRNNKSNFFPIRSHNKITYNNFEESTYIAWYTNVDIDIGLSEGHNIEYIPFDSYGNIGYSWSKKGKIFEKYIKDVLYKLKIKYEKQNNKVKRNVIKIIMNSLWGKFAQKWVNFEYFIKSEDDIDFESEEAYKIWDTDFMLIKKIKESTYSSKPIQNGVFTLSWARYHMKSIWDAGAKEGAECIYSDTDSIFVHKEHFKKNAKFMLNGLKVPIIGSEVGQLELECEFDKLLCAGKKQYMGFYTYFQDGKPCIKEKKRFKGIPSNYIIPELYAHLLSGADKEAKIQFLKFRREWGSVKGYIENKTVKAT
B4: I311N: TP-DNAP1 variant (protein)
chain: MDYKDKALNDLRNVYADFDSLPLDFRQILIKDRATLLQKEDVEKKILERQEDAKKYAEYLKQSEIPERISLPNIKRHKGVSISFEETSEDMVLEPRPFIFDGLNIRCFRRETIFSLKNKILNMVKESSSFKNVSRQSVSFMYFKIFNKGKVIASTKSVNIYEDKIDERLEDLCNNFDDVLKKIIDVTYGYESLFVSETYSYVIFYAKSIYFPQPRCVNNWGNNIPNILTFDSFKLFTANKNNVSCIKQCSRFLWQKDFNTLEEMIEYKNGNICIVTPQLHINDVRDIKSFNDIRLYSESPIKTFSVIDNTNTYLFYFKEHLGVIFNITKSRHDRRVTKFSPLSKFSDVKNITVCFDIESYFDPEKESNQVNIPFICCASIIYNKVIGNIVDFEGRDCVAQMIEYVVDICGELNISSVELIAHNGGGYDFHYILSSMYNPAAIKNILIRNNSFISFNFAHDGVKFSVKDSYSFLLCSLANASKAFLNEETFKKTDFPHHDLKTADDLYKVYKEWSSVNTEINHVVEKEKLLITSEHIVNFTKNDKSKTLIEWSKDYCRNDVLVLSKVWLEFKNAVEDIFNCELVDQTMTLAGLSYKLFQANMPFDVELRHPNKEDYFNMREALIGGRCISVNGIYKDVLCLDVKSLYPASMAFYDQPYGSFKRVSSRPKDELGIYYVRVTPNRNNKSNFFPIRSHNKITYNNFEESTYIAWYTNVDIDIGLSEGHNIEYIPFDSYGNIGYSWSKKGKIFEKYIKDVLYKLKIKYEKQNNKVKRNVIKIIMNSLWGKFAQKWVNFEYFIKSEDDIDFESEEAYKIWDTDFMLIKKIKESTYSSKPIQNGVFTLSWARYHMKSIWDAGAKEGAECIYSDTDSIFVHKEHFKKNAKFMLNGLKVPIIGSEVGQLELECEFDKLLCAGKKQYMGFYTYFQDGKPCIKEKKRFKGIPSNYIIPELYAHLLSGADKEAKIQFLKFRREWGSVKGYIENKTVKAT
B5: I311A: TP-DNAP1 variant (protein)
chain: MDYKDKALNDLRNVYADFDSLPLDFRQILIKDRATLLQKEDVEKKILERQEDAKKYAEYLKQSEIPERISLPNIKRHKGVSISFEETSEDMVLEPRPFIFDGLNIRCFRRETIFSLKNKILNMVKESSSFKNVSRQSVSFMYFKIFNKGKVIASTKSVNIYEDKIDERLEDLCNNFDDVLKKIIDVTYGYESLFVSETYSYVIFYAKSIYFPQPRCVNNWGNNIPNILTFDSFKLFTANKNNVSCIKQCSRFLWQKDFNTLEEMIEYKNGNICIVTPQLHINDVRDIKSFNDIRLYSESPIKTFSVIDNTATYLFYFKEHLGVIFNITKSRHDRRVTKFSPLSKFSDVKNITVCFDIESYFDPEKESNQVNIPFICCASIIYNKVIGNIVDFEGRDCVAQMIEYVVDICGELNISSVELIAHNGGGYDFHYILSSMYNPAAIKNILIRNNSFISFNFAHDGVKFSVKDSYSFLLCSLANASKAFLNEETFKKTDFPHHDLKTADDLYKVYKEWSSVNTEINHVVEKEKLLITSEHIVNFTKNDKSKTLIEWSKDYCRNDVLVLSKVWLEFKNAVEDIFNCELVDQTMTLAGLSYKLFQANMPFDVELRHPNKEDYFNMREALIGGRCISVNGIYKDVLCLDVKSLYPASMAFYDQPYGSFKRVSSRPKDELGIYYVRVTPNRNNKSNFFPIRSHNKITYNNFEESTYIAWYTNVDIDIGLSEGHNIEYIPFDSYGNIGYSWSKKGKIFEKYIKDVLYKLKIKYEKQNNKVKRNVIKIIMNSLWGKFAQKWVNFEYFIKSEDDIDFESEEAYKIWDTDFMLIKKIKESTYSSKPIQNGVFTLSWARYHMKSIWDAGAKEGAECIYSDTDSIFVHKEHFKKNAKFMLNGLKVPIIGSEVGQLELECEFDKLLCAGKKQYMGFYTYFQDGKPCIKEKKRFKGIPSNYIIPELYAHLLSGADKEAKIQFLKFRREWGSVKGYIENKTVKAT
B6: I311D: TP-DNAP1 variant (protein)
chain: MDYKDKALNDLRNVYADFDSLPLDFRQILIKDRATLLQKEDVEKKILERQEDAKKYAEYLKQSEIPERISLPNIKRHKGVSISFEETSEDMVLEPRPFIFDGLNIRCFRRETIFSLKNKILNMVKESSSFKNVSRQSVSFMYFKIFNKGKVIASTKSVNIYEDKIDERLEDLCNNFDDVLKKIIDVTYGYESLFVSETYSYVIFYAKSIYFPQPRCVNNWGNNIPNILTFDSFKLFTANKNNVSCIKQCSRFLWQKDFNTLEEMIEYKNGNICIVTPQLHINDVRDIKSFNDIRLYSESPIKTFSVIDNTDTYLFYFKEHLGVIFNITKSRHDRRVTKFSPLSKFSDVKNITVCFDIESYFDPEKESNQVNIPFICCASIIYNKVIGNIVDFEGRDCVAQMIEYVVDICGELNISSVELIAHNGGGYDFHYILSSMYNPAAIKNILIRNNSFISFNFAHDGVKFSVKDSYSFLLCSLANASKAFLNEETFKKTDFPHHDLKTADDLYKVYKEWSSVNTEINHVVEKEKLLITSEHIVNFTKNDKSKTLIEWSKDYCRNDVLVLSKVWLEFKNAVEDIFNCELVDQTMTLAGLSYKLFQANMPFDVELRHPNKEDYFNMREALIGGRCISVNGIYKDVLCLDVKSLYPASMAFYDQPYGSFKRVSSRPKDELGIYYVRVTPNRNNKSNFFPIRSHNKITYNNFEESTYIAWYTNVDIDIGLSEGHNIEYIPFDSYGNIGYSWSKKGKIFEKYIKDVLYKLKIKYEKQNNKVKRNVIKIIMNSLWGKFAQKWVNFEYFIKSEDDIDFESEEAYKIWDTDFMLIKKIKESTYSSKPIQNGVFTLSWARYHMKSIWDAGAKEGAECIYSDTDSIFVHKEHFKKNAKFMLNGLKVPIIGSEVGQLELECEFDKLLCAGKKQYMGFYTYFQDGKPCIKEKKRFKGIPSNYIIPELYAHLLSGADKEAKIQFLKFRREWGSVKGYIENKTVKAT

These molecules were tested on p1 (assay: p1 copy number by p1-encoded mKate2 fluorescence). Conditions: OR-Y24, measured in triplicate.
Type: cell-based, S. cerevisiae
Procedure, shortened: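 p1 copy number came from mKate2 fluorescence of saturated OR-Y24 cultures (triplicates, regrown from 1:10,000), read by flow cytometry and converted through a linear curve calibrated by qPCR (LEU2 against genomic LEU3). For small-scale tests, OD600-normalized plate-reader fluorescence (588/633 nm) was scaled to a w.t. TP-DNAP1 control.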
In the case of B1, the “Mean fold-increase over w.t. (p1 copy number)” value (shortened to “Mean fold-increase”) is reported as 2.66 fold.
In the case of B2, the “Mean fold-increase” value is reported as 2.05 fold.
With B3 the “Mean fold-increase” value was 2.48 fold.
In the case of B4, the “Mean fold-increase” value is reported as 2.55 fold.
In the case of B5, the “Mean fold-increase” value is reported as 2.19 fold.
With B6 the “Mean fold-increase” value was 1.86 fold.
